Data published in US20260103522A1 (LONGBIO PHARMA SUZHOU, published 2026).
Positions count from the first letter of the chain named.

B1: GPC3-specific binding protein DB-B230 (antibody, human IgG1, kappa)
heavy: QVQLVQSGAEVKKPGASVKVSCKASGYTFTDYEMHWVRQAPGQGLEWMGALDPKTGDTAYSQKFKGRVTLTADKSTSTAYMELSSLTSEDTAVYYCTRFYSYTYWGQGTLVTVSSASTKGPSVFPLAPSSKSTSGGTAALGCLVKDYFPEPVTVSWNSGALTSGVHTFPAVLQSSGLYSLSSVVTVPSSSLGTQTYICNVNHKPSNTKVDKKVEPKSCDKTHTCPPCPADSNPRGVSVFLFPPKPKDTLMISRTPEVTCVVVDLAPSKGTVKFNWYVDGVEVHNAKTKPREKQRNGTLTVVSVLTVLHQDWLNGKEYKCKVTHPHLPRALEKTISKAKGQPREPQVYTLPPSREEMTKNQVSLTCLVKGFYPSDIAVEWESNGQPENNYKTTPPVLDSDGSFFLYSKLTVDKSRWQQGNVFSCSVMHEALHNHYTQKSLSLSPGK
light: DVVMTQSPLSLPVTPGEPASISCRSSQSLVHSNRNTYLHWYLQKPGQSPQLLIYKVSNRFSGVPDRFSGSGSGTDFTLKISRVEAEDVGVYYCSQNTHVPPTFGQGTKLEIKRTVAAPSVFIFPPSDEQLKSGTASVVCLLNNFYPREAKVQWKVDNALQSGNSQESVTEQDSKDSTYSLSSTLTLSKADYEKHKVYACEVTHQGLSSPVTKSFNRGEC
notes: IgG-like molecule: Codrituzumab Fab fused to the engineered Fc; copies: 2 + 2
B2: GPC3-specific binding protein DB-B229 (antibody)
heavy: QVQLVQSGAEVKKPGASVKVSCKASGYTFTDYEMHWVRQAPGQGLEWMGALDPKTGDTAYSQKFKGRVTLTADKSTSTAYMELSSLTSEDTAVYYCTRFYSYTYWGQGTLVTVSSASTKGPSVFPLAPSSKSTSGGTAALGCLVKDYFPEPVTVSWNSGALTSGVHTFPAVLQSSGLYSLSSVVTVPSSSLGTQTYICNVNHKPSNTKVDKKVEPKSCSRDFTPPTVKILQSSCDGGGHFPPTIQLLCLVSGYTPGTINITWLEDGQVMDVDLSTASTTQEGELASTQSELTLSQKHWLSDRTYTCQVTYQGHTFEDSTKKCADSNPRGVSVFLFPPKPKDTLMISRTPEVTCVVVDLAPSKGTVKFNWYVDGVEVHNAKTKPREKQRNGTLTVVSVLTVLHQDWLNGKEYKCKVTHPHLPRALEKTISKAKGQPREPQVYTLPPSREEMTKNQVSLTCLVKGFYPSDIAVEWESNGQPENNYKTTPPVLDSDGSFFLYSKLTVDKSRWQQGNVFSCSVMHEALHNHYTQKSLSLSPGK
light: B1 light
notes: as for B1
B3: binding protein DB366 (designed binder)
chain: CADSNPRGVSVFLFPPKPKDTLMISRTPEVTCVVVDLAPSKGTVKFNWYVDGVEVHNAKTKPREKQRNGTLTVVSVLTVLHQDWLNGKEYKCKVTHPHLPRALEKTISKAKGQPREPQVYTLPPSREEMTKNQVSLTCLVKGFYPSDIAVEWESNGQPENNYKTTPPVLDSDGSFFLYSKLTVDKSRWQQGNVFSCSVMHEALHNHYTQKSLSLSPGK
notes: Engineered IgG Fc with IgE CH3 loops
B4: binding protein DB-B63 (designed binder)
chain: B3 chain with K45N, K93R
notes: as for B3
B5: binding protein DB177 (designed binder)
chain: CSRDFTPPTVKILQSSCDGGGHFPPTIQLLCLVSGYTPGTINITWLEDGQVMDVDLSTASTTQEGELASTQSELTLSQKHWLSDRTYTCQVTYQGHTFEDSTKKCADSNPRGVSVFLFPPKPKDTLMISRTPEVTCVVVDLAPSKGTVKFNWYVDGVEVHNAKTKPREKQRNGTLTVVSVLTVLHQDWLNGKEYKCKVTHPHLPRALEKTISKAKGQPREPQVYTLPPSREEMTKNQVSLTCLVKGFYPSDIAVEWESNGQPENNYKTTPPVLDSDGSFFLYSKLTVDKSRWQQGNVFSCSVMHEALHNHYTQKSLSLSPGK
notes: Engineered human IgG Fc whose CH2 carries BC-LOOP, DE-TURN and FG-LOOP of IgE CH3
B6: binding protein DB365 (designed binder)
chain: TKKCADSNPRGVSVFLFPPKPKDTLMISRTPEVTCVVVDLAPSKGTVKFNWYVDGVEVHNAKTKPREKQRNGTLTVVSVLTVLHQDWLNGKEYKCKVTHPHLPRALEKTISKAKGQPREPQVYTLPPSREEMTKNQVSLTCLVKGFYPSDIAVEWESNGQPENNYKTTPPVLDSDGSFFLYSKLTVDKSRWQQGNVFSCSVMHEALHNHYTQKSLSLSPGK
notes: as for B3
B7: Her2-specific binding protein DB871 (antibody)
heavy: EVQLVESGGGLVQPGGSLRLSCAASGFTFTDYTMDWVRQAPGKGLEWVADVNPNSGGSIYNQRFKGRFTLSVDRSKNTLYLQMNSLRAEDTAVYYCARNLGPSFYFDYWGQGTLVTVSSASTKGPSVFPLAPSSKSTSGGTAALGCLVKDYFPEPVTVSWNSGALTSGVHTFPAVLQSSGLYSLSSVVTVPSSSLGTQTYICNVNHKPSNTKVDKKVEPKSCSRDFTPPTVKILQSSCDGGGHFPPTIQLLCLVSGYTPGTINITWLEDGQVMDVDLSTASTTQEGELASTQSELTLSQKHWLSDRTYTCQVTYQGHTFEDSTKKCADSNPRGVSVFLFPPKPKDTLMISRTPEVTCVVVDLAPSKGTVKFNWYVDGVEVHNAKTKPREKQRNGTLTVVSVLTVLHQDWLNGKEYKCKVTHPHLPRALEKTISKAKGQPREPQVYTLPPSREEMTKNQVSLTCLVKGFYPSDIAVEWESNGQPENNYKTTPPVLDSDGSFFLYSKLTVDKSRWQQGNVFSCSVMHEALHNHYTQKSLSLSPGK
light: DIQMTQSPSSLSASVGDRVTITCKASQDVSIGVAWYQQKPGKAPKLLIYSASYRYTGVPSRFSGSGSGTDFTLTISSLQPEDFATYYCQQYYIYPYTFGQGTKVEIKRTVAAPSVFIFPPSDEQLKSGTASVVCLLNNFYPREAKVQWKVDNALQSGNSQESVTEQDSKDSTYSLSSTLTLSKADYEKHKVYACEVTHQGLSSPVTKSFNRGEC
notes: IgG-like molecule: Pertuzumab Fab fused to the engineered Fc (on the basis of DB177); copies: 2 + 2
B8: binding protein DB364 (designed binder)
chain: DFTPPTVKILQSSCDGGGHFPPTIQLLCLVSGYTPGTINITWLEDGQVMDVDLSTASTTQEGELASTQSELTLSQKHWLSDRTYTCQVTYQGHTFEDSTKKCADSNPRGVSVFLFPPKPKDTLMISRTPEVTCVVVDLAPSKGTVKFNWYVDGVEVHNAKTKPREKQRNGTLTVVSVLTVLHQDWLNGKEYKCKVTHPHLPRALEKTISKAKGQPREPQVYTLPPSREEMTKNQVSLTCLVKGFYPSDIAVEWESNGQPENNYKTTPPVLDSDGSFFLYSKLTVDKSRWQQGNVFSCSVMHEALHNHYTQKSLSLSPGK
notes: as for B3
B9: Her2-specific binding protein DB872 (antibody, human IgG1, kappa)
heavy: EVQLVESGGGLVQPGGSLRLSCAASGFTFTDYTMDWVRQAPGKGLEWVADVNPNSGGSIYNQRFKGRFTLSVDRSKNTLYLQMNSLRAEDTAVYYCARNLGPSFYFDYWGQGTLVTVSSASTKGPSVFPLAPSSKSTSGGTAALGCLVKDYFPEPVTVSWNSGALTSGVHTFPAVLQSSGLYSLSSVVTVPSSSLGTQTYICNVNHKPSNTKVDKKVEPKSCDKTHTCPPCPADSNPRGVSVFLFPPKPKDTLMISRTPEVTCVVVDLAPSKGTVKFNWYVDGVEVHNAKTKPREKQRNGTLTVVSVLTVLHQDWLNGKEYKCKVTHPHLPRALEKTISKAKGQPREPQVYTLPPSREEMTKNQVSLTCLVKGFYPSDIAVEWESNGQPENNYKTTPPVLDSDGSFFLYSKLTVDKSRWQQGNVFSCSVMHEALHNHYTQKSLSLSPGK
light: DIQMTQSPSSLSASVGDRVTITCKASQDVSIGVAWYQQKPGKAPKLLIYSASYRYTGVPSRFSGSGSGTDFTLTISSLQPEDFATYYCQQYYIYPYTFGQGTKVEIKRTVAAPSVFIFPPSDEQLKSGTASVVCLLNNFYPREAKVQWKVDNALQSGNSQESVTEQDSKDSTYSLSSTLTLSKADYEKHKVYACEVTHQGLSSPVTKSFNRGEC
notes: IgG-like molecule: Pertuzumab Fab fused to the engineered Fc (on the basis of DB366); copies: 2 + 2
B10: binding protein DB-B64 (designed binder)
chain: CPAPELLGGPSVFLFPPKPKDTLMISRTPEVTCVVVDLAPSKGTVKFNWYVDGVEVHNAKTKPREKQRNGTLTVVSVLTVLHQDWLNGKEYKCKVTHPHLPRALEKTISKAKGQPREPQVYTLPPSREEMTKNQVSLTCLVKGFYPSDIAVEWESNGQPENNYKTTPPVLDSDGSFFLYSKLTVDKSRWQQGNVFSCSVMHEALHNHYTQKSLSLSPGK
notes: as for B3

Target: T1, recombinant human FcεRIa extracellular region-mouse IgG2a Fc-6×His fusion protein (human; mouse, UniProt P12319 26-205)
T1 construct: extracellular domain; Self-produced; also called FcεRIa-mG2Ahis; DB3967; not shown: mouse IgG2a Fc
T1 sequence (P12319 26-205): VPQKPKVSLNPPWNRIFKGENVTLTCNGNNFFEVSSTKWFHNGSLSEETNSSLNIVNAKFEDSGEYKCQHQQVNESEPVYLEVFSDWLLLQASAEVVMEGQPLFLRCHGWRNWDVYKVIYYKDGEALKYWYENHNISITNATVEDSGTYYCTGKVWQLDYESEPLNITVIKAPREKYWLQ
Assay: BLI (GatorBio), FcεRIa-mG2Ahis loaded on Anti-HIS probe, binding protein at 200, 50, 12.5 nM
Text: In order to verify the binding ability of the binding proteins to FcεRIa, the Bio-layer Interferometry (BLI, GatorBio) was used to detect the affinity of the binding proteins to FcεRIa. The detailed affinity assay method can be found in the usage or application instructions of the GatorBio instrument, which was briefly described as follows: […]

Binder	Kd [nM]
B1	~1
B2	~1
B3	~1
B4	~1
B5	~1
B6	~1
B7	~1
B8	~1
B9	~1
B10	~1
